Experimental data: patent US9005614B2, “PRLR-specific antibody and uses thereof” (Novartis AG, priority 2006, dated 2015)
Read-outs that look alike come from different tables or passages of the source.

T1: cynomolgus PRLR ECD (Macaca fascicularis, UniProt A0A2K5WXK1)
T1 construct: antibodies against human and cynomolgus PRLR ECD
T1 sequence (A0A2K5WXK1 25-234): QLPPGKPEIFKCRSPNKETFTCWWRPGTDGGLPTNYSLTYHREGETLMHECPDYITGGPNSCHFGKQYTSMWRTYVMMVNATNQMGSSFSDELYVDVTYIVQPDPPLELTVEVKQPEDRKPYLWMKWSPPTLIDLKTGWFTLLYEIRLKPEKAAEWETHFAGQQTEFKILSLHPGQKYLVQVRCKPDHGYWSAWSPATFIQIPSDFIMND

T2: human PRLR ECD (Homo sapiens, UniProt P16471)
T2 construct: His6 (C); made in house; host or cells: Tn5 insect cells, baculovirus
T2 sequence (P16471 25-234): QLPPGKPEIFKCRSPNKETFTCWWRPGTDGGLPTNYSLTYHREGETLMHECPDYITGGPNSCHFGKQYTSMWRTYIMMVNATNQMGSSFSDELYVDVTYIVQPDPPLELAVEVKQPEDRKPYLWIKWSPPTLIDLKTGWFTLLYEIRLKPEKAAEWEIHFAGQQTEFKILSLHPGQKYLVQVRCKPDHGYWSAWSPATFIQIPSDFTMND


Legend:
BaF3/PRLR cells = experiment: In vitro combination of anti-PRLR mAbs and chemotherapeutics, cell survival (CellTiter Glo); type: cell-based; details: 5 days
Protocol: Cell survival was determined by CellTiter Glo analysis and is reported aS RLU (y-axis).
Due to the possibility that a potential anti-PRLR therapeutic antibody may be administered in conjunction with cytotoxic drug regimens in the clinic, the effects of such combination therapies on cell survival in culture was investigated. […] An array of clinically-relevant and mechanistically diverse cytotoxic agents were utilized in this assay: Doxorubicin (an anthracycline Topo II inhibitor), Taxol (a microtubule stabilizing agent), Fludarabine (an anti-metabolite), and Cisplatin (a platinum-based DNA cross-linking drug).

cynomolgus PRLR ECD = biological target: T1, cynomolgus PRLR ECD; experiment: Biacore kinetic titration, antibody captured on Protein A/G; type: binding; details: Table 9, Cyno PRLR ECD; unit not given
Protocol: (§1) Affinity of the chimerized and HUMAN ENGINEERED™ antibodies determined by Biacore analysis. Briefly, a CM5 sensor chip (Biacore) immobilized with Protein A/G (Pierce) via NHS/EDC was used to capture approximately 600 RU of antibody on the chip surface. Five concentrations of PRLR ECD beginning at 5 ug/mL (185 nM) and serially diluted at 5× dilution to 0.3 nM were injected from lowest to highest concentration in the kinetic titration injection mode, and 15 minutes of dissociation data was collected. The experiments were double-referenced, i.e. an adjacent flow cell response was subtracted automatically, and the response from a buffer injection experiment was subtracted from the experimental data set. Kinetic and derived parameters (ka, kd and KD) were determined by fitting to a 1:1 Langmuir model using BiaEval software customized to the kinetic titration injection mode. Affinity measurements of both chimeric and all HUMAN ENGINEERED™ antibodies against human and cynomolgus PRLR ECD are summarized in Table 9 and Table 10.

human PRLR ECD = biological target: T2, human PRLR ECD; experiment: as above; type: binding; details: Table 9, Human PRLR ECD; unit not given
Protocol: as §1

[1] = tested on: PRL-induced phospho-PRLR and phospho-Stat5; experiment: PRL-induced PRLR and STAT5 phosphorylation in T47D cells by Western blot; type: cell-based, human
Protocol: Cells were pre-treated with 1 ug/ml mAb prior to 30 min stimulation with 50 ng/ml PRL. Lysates were analyzed for the presence of phospho-PRLR using antibodies specific for phosphotyrosine residues 546 and 611 of the PRLR.
T47D cells were incubated with 1 or 10 ug/ml mAb, then treated with or without PRL (50 ng/ml) for an additional 30 min.
The ability of selected antibodies to inhibit PRL-induced phosphorylation of STAT5 and AKT was determined as follows. Cells were seeded overnight in 6 well plates at a density of 3×10^5 cells/ml in phenol red-free RPMI/10% FBS. The following day, media was replaced with serum-free RPMI for 30 min. In some experiments, anti-PRLR or non-specific control antibodies were incubated with cells during this serum starvation period. 50 ng/ml PRL was then added to wells for 30 min, after which cells were rinsed once in PBS and lysed in a buffer consisting of 50 mM Tris-HCl, pH7.5, 150 mM NaCl, 1 mM EDTA, 1% NP-40, 1 mM Na3OV4, 50 mM NaF, 0.25% deoxycholate and protease inhibitors. Tubes were spun down at 14,000 rpm in a refrigerated microfuge and lysates were quantitated using BCA reagents. 30 μg of whole cell lysate was separated by 10% SDS-PAGE and proteins were detected using phospho-specific antibodies for STAT5A/B (Y694/Y699, Upstate) or PRLR (Y546/Y611, in-house) and ECL. Equal protein loading was determined by staining with antibodies specific for total STAT5 (BD) or PRLR (Zymed) or AKT (Cell Signalling). Results of a representative assay of effect of a PRLR-specific antibody on PRLR intracellular phosphorylation are shown in FIG. 6.
Chimeric mAbs were analyzed for their ability to inhibit the proliferation and survival of BaF/PRLR cells [FIG. 11]. […] In order to assess the PRLR signal-neutralizing capability of the chimeric antibodies in a human breast cancer model, T47D cells were treated with 1 ug/ml mAb for 30 min prior to PRL stimulation. At the same time, additional cell samples were incubated with antibody alone to examine any potential agonism gained through chimerization of the antibody candidates.
Antibodies were assessed in target modulation and cell proliferation assays. FIG. 16 depicts the effect of 2 concentrations of chXHA.06.642 and HUMAN ENGINEERED™ antibodies he.06.642-1 and he.06.642-2, on PRL-induced Stat5 phosphorylation in T47D cells. […] Similar results were found for chXHA.06.275 variants.

[2] = Mus musculus, 120 h, co-administered anti-KLH control Ab 1 ug/ml, read-out: chemotherapeutic IC50 with KLH (1 ug/ml)
[3] = Mus musculus, 120 h, co-administered chXHA.06.275 1 ug/ml, read-out: chemotherapeutic IC50 with chXHA.06.275 (1 ug/ml)
[4] = Mus musculus, 120 h, co-administered chXHA.06.642 1 ug/ml, read-out: chemotherapeutic IC50 with chXHA.06.642 (1 ug/ml)

| Molecule | IC50 (BaF3/PRLR cells; [2]) [nM] | IC50 (BaF3/PRLR cells; [3]) [nM] | IC50 (BaF3/PRLR cells; [4]) [nM] | ka (cynomolgus PRLR ECD) | kd (cynomolgus PRLR ECD) | ka (human PRLR ECD) | kd (human PRLR ECD) | other results |
| --- | --- | --- | --- | --- | --- | --- | --- | --- |
| Nc1nc(F)nc2c1ncn2[C@@H]1O[C@H](CO)[C@@H](O)[C@@H]1O [Fludarabine] | 105000 | 93800 | 40000 |  |  |  |  |  |
| COc1cccc2c1C(=O)c1c(O)c3c(c(O)c1C2=O)C[C@@](O)(C(=O)CO)C[C@@H]3O[C@H]1C[C@H](N)[C@H](O)[C@H](C)O1 [Doxorubicin] | 6.44 | 2.56 | 2.14 |  |  |  |  |  |
| CC(=O)O[C@H]1C(=O)[C@@]2(C)[C@H]([C@H](OC(=O)c3ccccc3)[C@]3(O)C[C@H](OC(=O)[C@H](O)[C@@H](NC(=O)c4ccccc4)c4ccccc4)C(C)=C1C3(C)C)[C@]1(OC(C)=O)CO[C@@H]1C[C@@H]2O [Taxol] | 4.14 | 2.45 | 2.07 |  |  |  |  |  |
| N.N.[Cl][Pt][Cl] [Cisplatin] |  |  |  |  |  |  |  | IC50 (BaF3/PRLR cells; co-administered anti-KLH control Ab 1 ug/ml, read-out: chemotherapeutic IC50 with KLH (1 ug/ml)): 166 nM; IC50 (BaF3/PRLR cells; co-administered chXHA.06.275 1 ug/ml, read-out: chemotherapeutic IC50 with chXHA.06.275 (1 ug/ml)): 46.8 nM; IC50 (BaF3/PRLR cells; co-administered chXHA.06.642 1 ug/ml, read-out: chemotherapeutic IC50 with chXHA.06.642 (1 ug/ml)): 27.6 nM |
| he.06.642-1: HUMAN-ENGINEERED antibody from XHA.06.642; variable regions SEQ ID NO: 88 and SEQ ID NO: 89 by order of listing (antibody, V domains shown) VH: EVQLVESGGGLVQPGGSLRLSCAVSGFTFSSYGMSWVRQAPGKRLEWVATVSSGGTYTYYPDSVKGRFTISRDNSKNTLYLQMNSLRAEDTAMYYCARHRGNYYATYYYAMDYWGQGTLVTVSS VL: DIVLTQSPDSLAVSLGERATINCKASKSVSTSGYTYMHWYQQKPGQPPKLLIYLASNRESGVPDRFSGSGSGTDFTLTISPVQAEDVATYYCQHSGELPPSFGQGTKLEIK |  |  |  | 1.2E+05 | 3.8E−03 | 1.7E+05 | 3.5E−04 | agonism: induction of PRLR signaling by antibody alone ([1]; T47D cells treated with mAb alone): neither antibody displayed any agonistic activity; block of PRL-induced signaling (phospho-PRLR, phospho-Stat5) ([1]; T47D cells, 1 or 10 ug/ml mAb, then PRL 50 ng/ml 30 min): complete p-Stat5 signal abrogation |
| he.06.275-1: HUMAN-ENGINEERED antibody from XHA.06.275; variable regions SEQ ID NO: 91 and SEQ ID NO: 93 by order of listing (antibody, V domains shown) VH: DVQLQESGPGLVKPSQTLSLTCTVTGYSITSDYAWNWIRQFPGKKLEWMGYISYSGSTSYNPSLKSRITISRDTSKNQFSLQLNSVTAADTATYFCARDYGYVFDYWGQGTTLTVSS VL: DVQITQSPSSLSASPGDRITLTCRASKNIYKYLAWYQEKPGKTNNLLIYSGSTLHSGIPSRFSGSGSGTDFTLTISSLQPEDFAMYYCQQHNDYPYTFGQGTKLEIK |  |  |  | 3.6E+05 | 5.7E−04 | 6.2E+05 | 3.1E−04 |  |
| he.06.275-2: HUMAN-ENGINEERED antibody from XHA.06.275; variable regions SEQ ID NO: 91 and SEQ ID NO: 94 by order of listing (antibody, V domains shown) VH: QVQLQESGPGLVKPSQTLSLTCTVSGYSITSDYAWNWIRQFPGKGLEWMGYISYSGSTSYNPSLKSRITISRDTSKNQFSLQLNSVTAADTAVYFCARDYGYVFDYWGQGTTLTVSS VL: DVQITQSPSSLSASPGDRITLTCRASKNIYKYLAWYQEKPGKTNNLLIYSGSTLHSGIPSRFSGSGSGTDFTLTISSLQPEDFAMYYCQQHNDYPYTFGQGTKLEIK |  |  |  | 3.7E+05 | 6.9E−04 | 6.0E+05 | 3.7E−04 |  |
| he.06.275-3: HUMAN-ENGINEERED antibody from XHA.06.275; variable regions SEQ ID NO: 92 and SEQ ID NO: 93 by order of listing (antibody, V domains shown) VH: DVQLQESGPGLVKPSQTLSLTCTVTGYSITSDYAWNWIRQFPGKKLEWMGYISYSGSTSYNPSLKSRITISRDTSKNQFSLQLNSVTAADTATYFCARDYGYVFDYWGQGTTLTVSS VL: DVQITQSPSSLSASPGDRITLTCRASKNIYKYLAWYQEKPGKANKLLIYSGSTLHSGIPSRFSGSGSGTDFTLTISSLQPEDFAMYYCQQHNDYPYTFGQGTKLEIK |  |  |  | 3.9E+05 | 5.0E−04 | 6.4E+05 | 2.7E−04 |  |
